The target of experiment [1] is T1, Subtilisin-treated microtubules (lacking the C-terminal tails of α- and β-tubulin) (bovine, UniProt Q6B856 1-445, Purified bovine brain tubulin is an isotype mixture; the representative isotypes alpha-1B and beta-2B are assumed, as the paper states none. Cleavage limits are not given; the conventional major sub). The experiment in a line: co-sedimentation; 2 μM kinesin, 0–4 μM paclitaxel-stabilised microtubules, no added nucleotide, low ionic strength (21 mM; ATPase buffer with 7.5 mM KCl), 298 K, 100,000 × g 30 min; supernatant and pellet by SDS-PAGE; apparent constants, fit to Equation 3. The following applies: both partners purified.

Experiment [2] addresses T1, Subtilisin-treated microtubules …. The experiment in a line: co-sedimentation; 2 μM kinesin, 0–4 μM paclitaxel-stabilised microtubules, no added nucleotide, high ionic strength (88 mM; ATPase buffer with 75 mM KCl), 298 K, 100,000 × g 30 min; supernatant and pellet by SDS-PAGE; apparent constants, fit to Equation 3. As to conditions: both partners purified.

T1 sequence (chain, as listed by the source, chain 1 of 2): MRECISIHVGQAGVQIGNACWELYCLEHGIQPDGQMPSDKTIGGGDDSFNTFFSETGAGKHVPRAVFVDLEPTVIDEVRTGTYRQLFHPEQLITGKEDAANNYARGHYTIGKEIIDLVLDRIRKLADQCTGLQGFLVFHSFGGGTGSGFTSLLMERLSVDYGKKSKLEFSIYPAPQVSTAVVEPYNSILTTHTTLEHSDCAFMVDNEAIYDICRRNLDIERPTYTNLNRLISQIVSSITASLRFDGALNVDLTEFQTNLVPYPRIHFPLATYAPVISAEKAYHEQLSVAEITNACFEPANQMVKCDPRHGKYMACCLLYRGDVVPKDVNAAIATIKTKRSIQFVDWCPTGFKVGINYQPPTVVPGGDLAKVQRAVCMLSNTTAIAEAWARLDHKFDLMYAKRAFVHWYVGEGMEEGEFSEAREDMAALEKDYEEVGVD
T1 sequence (Q6B856 1-433, chain 2 of 2): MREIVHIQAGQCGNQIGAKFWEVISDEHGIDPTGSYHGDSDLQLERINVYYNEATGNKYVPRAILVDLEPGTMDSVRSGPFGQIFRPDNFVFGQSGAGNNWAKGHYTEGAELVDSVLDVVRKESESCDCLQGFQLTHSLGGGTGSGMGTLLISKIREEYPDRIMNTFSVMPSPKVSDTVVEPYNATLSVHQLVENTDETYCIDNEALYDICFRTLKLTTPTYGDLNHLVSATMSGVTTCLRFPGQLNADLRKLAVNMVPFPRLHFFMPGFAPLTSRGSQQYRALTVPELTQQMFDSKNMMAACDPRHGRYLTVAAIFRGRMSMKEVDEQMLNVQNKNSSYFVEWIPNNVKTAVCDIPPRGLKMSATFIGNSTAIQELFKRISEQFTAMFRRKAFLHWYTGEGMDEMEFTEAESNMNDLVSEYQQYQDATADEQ

B1: Cin8-trx (Cin8 motor domain, residues 70–535, fused to N-terminal thioredoxin (TrxA), His6, TEV cleavage and Arg9 tags) (domain or fragment, S. cerevisiae, UniProt P27895 70-535, looked up)
chain: ISINTTGDTGITAQMNAKRYTVDKVFGPGASQDLIFDEVAGPLFQDFIKGYNCTVLVYGMTSTGKTYTMTGDEKLYNGELSDAAGIIPRVLLKLFDTLELQQNDYVVKCSFIELYNEELKDLLDSNSNGSSNTGFDGQFMKKLRIFDSSTANNTTSNSASSSRSNSRNSSPRSLNDLTPKAALLRKRLRTKSLPNTIKQQYQQQQAVNSRNNSSSNSGSTTNNASSNTNTNNGQRSSMAPNDQTNGIYIQNLQEFHITNAMEGLNLLQKGLKHRQVASTKMNDFSSRSHTIFTITLYKKHQDELFRISKMNLVDLAGSENINRSGALNQRAKEAGSINQSLLTLGRVINALVDKSGHIPFRESKLTRLLQDSLGGNTKTALIATISPAKVTSEETCSTLEYASKAKNIKNKPQLGSFIMKDILVKNITMELAKIKSDLLSTKSKEGIYMSQDHYKNLNSDLESYKN
notes: Kinesin-5 Cin8, S. cerevisiae, motor domain, residues 70–535; Expected mass 67.3 kDa; source: E. coli B834(DE3) with pRILP, purified (SP-Sepharose, nickel-nitrilotriacetic acid, Sephadex G-25); not shown: thioredoxin (TrxA), N-terminal, kept; His6, N-terminal, kept; TEV cleavage tag, N-terminal, kept; Arg9, N-terminal, kept
By stoichiometry N is commonly meant a count of units in the complex or per binding partner. For B1, the “stoichiometry N” value in experiment [1] worked out at 5.4 ± 0.4; in experiment [2] it was 2.2 ± 0.2.

The record behind these values is publication PMC5582858, “The yeast kinesin-5 Cin8 interacts with the microtubule in a noncanonical manner” (The Journal of Biological Chemistry, 2017).
